pKd: −log10 of the molar value.
How the values were obtained:
Assay in all cases: SPR; BIAcore 2000. Aaa, N-Aaa and C-Aaa amine-coupled at low density to a C1 chip (149, 96 and 72 pg/mm^2, nearly equimolar). Fg, Fn or Vn injected as analytes at 50 µl/min, 25°C. KD from the kinetics of the initial phases (binding biphasic at higher concentrations).
[1] = target: C-terminal CHAP domain of Aaa (6 x His-C-Aaa) (Staphylococcus aureus 4074)
[2] = target: autolysin/adhesin Aaa from Staphylococcus aureus (6 x His-Aaa) (Staphylococcus aureus) (UniProt Q2G0U9)
[3] = target: N-terminal LysM domain of Aaa (6 x His-N-Aaa) (Staphylococcus aureus 4074)
Sequence of N-terminal LysM domain of Aaa (6 x His-N-Aaa) (Staphylococcus aureus 4074) (P0C1U7 26-214 limits assumed): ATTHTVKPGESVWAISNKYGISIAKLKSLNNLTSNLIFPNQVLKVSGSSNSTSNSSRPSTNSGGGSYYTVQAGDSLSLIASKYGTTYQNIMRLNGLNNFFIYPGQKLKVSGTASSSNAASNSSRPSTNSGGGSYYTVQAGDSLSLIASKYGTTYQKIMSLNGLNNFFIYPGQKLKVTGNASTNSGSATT

Sequence of C-terminal CHAP domain of Aaa (6 x His-C-Aaa) (Staphylococcus aureus 4074) (P0C1U7 215-334 limits assumed): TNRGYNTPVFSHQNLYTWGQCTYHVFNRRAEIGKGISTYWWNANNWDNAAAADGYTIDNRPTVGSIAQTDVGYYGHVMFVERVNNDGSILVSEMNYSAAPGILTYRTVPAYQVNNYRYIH

Substance	pKd [1]	relative stoichiometry of binding (Aaa : N-Aaa : C-Aaa) [1]	pKd [2]	relative stoichiometry of binding (Aaa : N-Aaa : C-Aaa) [2]	pKd [3]	relative stoichiometry of binding (Aaa : N-Aaa : C-Aaa) [3]
fibrinogen (from UniProt P02671 36-866; P02675 45-491; P02679 27-453) (complex)	9.13	1	9.12	4	9.39	2
fibronectin (from UniProt P02751 32-2477) (natural protein)	8.17	1	8.22	2	8.29	1
vitronectin (natural protein)	7.70	1	7.74	2	7.74	1

— article PMC3386970
